# B1: α2-macroglobulin (α2M), native (natural protein)
# chain: SVSGKPQYMVLVPSLLHTETTEKGCVLLSYLNETVTVSASLESVRGNRSLFTDLEAENDVLHCVAFAVPKSSSNEEVMFLTVQVKGPTQEFKKRTTVMVKNEDSLVFVQTDKSIYKPGQTVKFRVVSMDENFHPLNELIPLVYIQDPKGNRIAQWQSFQLEGGLKQFSFPLSSEPFQGSYKVVVQKKSGGRTEHPFTVEEFVLPKFEVQVTVPKIITILEEEMNVSVCGLYTYGKPVPGHVTVSICRKYSDASDCHGEDSQAFCEKFSGQLNSHGCFYQQVKTKVFQLKRKEYEMKLHTEAQIQEEGTVVELTGRQSSEITRTITKLSFVKVDSHFRQGIPFFGQVRLVDGKGVPIPNKVIFIRGNEANYYSNATTDEHGLVQFSINTTNVMGTSLTVRVNYKDRSPCYGYQWVSEEHEEAHHTAYLVFSPSKSFVHLEPMSHELPCGHTQTVQAHYILNGGTLLGLKKLSFYYLIMAKGGIVRTGTHGLLVKQEDMKGHFSISIPVKSDIAPVARLLIYAVLPTGDVIGDSAKYDVENCLANKVDLSFSPSQSLPASHAHLRVTAAPQSVCALRAVDQSVLLMKPDAELSASSVYNLLPEKDLTGFPGPLNDQDNEDCINRHNVYINGITYTPVSSTNEKDMYSFLEDMGLKAFTNSKIRKPKMCPQLQQYEMHGPEGLRVGFYESDVMGRGHARLVHVEEPHTETVRKYFPETWIWDLVVVNSAGVAEVGVTVPDTITEWKAGAFCLSEDAGLGISSTASLRAFQPFFVELTMPYSVIRGEAFTLKATVLNYLPKCIRVSVQLEASPAFLAVPVEKEQAPHCICANGRQTVSWAVTPKSLGNVNFTVSAEALESQELCGTEVPSVPEHGRKDTVIKPLLVEPEGLEKETTFNSLLCPSGGEVSEELSLKLPPNVVEESARASVSVLGDILGSAMQNTQNLLQMPYGCGEQNMVLFAPNIYVLDYLNETQQLTPEIKSKAIGYLNTGYQRQLNYKHYDGSYSTFGERYGRNQGNTWLTAFVLKTFAQARAYIFIDEAHITQALIWLSQRQKDNGCFRSSGSLLNNAIKGGVEDEVTLSAYITIALLEIPLTVTHPVVRNALFCLESAWKTAQEGDHGSHVYTKALLAYAFALAGNQDKRKEVLKSLNEEAVKKDNSVHWERPQKPKAPVGHFYEPQAPSAEVEMTSYVLLAYLTAQPAPTSEDLTSATNIVKWITKQQNAQGGFSSTQDTVVALHALSKYGAATFTRTGKAAQVTIQSSGTFSSKFQVDNNNRLLLQQVSLPELPGEYSMKVTGEGCVYLQTSLKYNILPEKEEFPFALGVQTLPQTCDEPKAHTSFQISLSVSYTGSRSASNMAIVDVKMVSGFIPLKPTVKMLERSNHVSRTEVSSNHVLIYLDKVSNQTLSLFFTVLQDVPVRDLKPAIVKVYDYYETDEFAIAEYNAPCSKDLGNA
# B2: methylamine-activated α2-macroglobulin (α2M-MA) (natural protein)
# chain: B1 chain
# modifications: internal thioester cleaved by methylamine (MA-activated)
# Assays:
# [1] = biological target: His-tagged recombinant full-length HB3VAR06 (FV6) (P. falciparum HB3); test: SEC; Superdex 200 10/30 HR, 50 mM Tris-HCl, 150 mM NaCl, pH 7.4; α2M (150 μg) alone and with molar ratios of FV6, incubated on ice 15 min; 0.5 mL/min, A280
# [2] = biological target: His-tagged recombinant full-length HB3VAR06 (FV6) (P. falciparum HB3); test: ELISA; MaxiSorp plates coated with recombinant PfEMP1 constructs (18 nM, overnight, 4°C); blocked in TSM buffer with 1% Ig-free BSA; α2M or α2M-MA (10 nM; titrated in Fig 2A); detected with anti-α2M antibodies
Binder,stoichiometry N [1],amount bound relative to α2M-MA (fold) [2],stoichiometry N (FV6 per α2M-MA) [1]
B1,> 4 FV6 per α2M,4 fold,
B2,,,1

# From article PMC4489720
